We go through two proteins from article PMC3155264 (Cell, 2011).

The data set “SEC” deals with the molecule itself. The data set can be described thus: SEC. A general note: In gel filtration, larger molecules generally elute earlier.
The data set “crystal structure” concerns the molecule itself. In words: crystal structure.

B1: MinE^21-88 (domain or fragment, E. coli, UniProt P0A734 21-88, looked up)
chain: RLQIIVAERRRSDAEPHYLPQLRKDILEVICKYVQIDPEMVTVQLEQKDGDISILELNVTLPEAEELK
Take B1: the binding result in “SEC” is listed as “binds”.

B2: MinE^I24N*-h (domain or fragment, E. coli, UniProt P0A734 12-88, looked up)
chain: KNTANIAKERLQNIVAERRRSDAEPHYLPQLRKDILEVICKYVQIDPEMVTVQLEQKDGDISILELNVTLPEAEELK
Regarding B2, in the data set “crystal structure”, the binding result is recorded as “binds”.
